From IntAct's records for PubMed 22493499

B1: Signaling lymphocytic activation molecule (Mus musculus), Q9QUM4 (parent)
chain: MDPKGSLSWRILLFLSLAFELSYGTGGGVMDCPVILQKLGQDTWLPLTNEHQINKSVNKSVRILVTMATSPGSKSNKKIVSFDLSKGSYPDHLEDGYHFQSKNLSLKILGNRRESEGWYLVSVEENVSVQQFCKQLKLYEQVSPPEIKVLNKTQENENGTCSLLLACTVKKGDHVTYSWSDEAGTHLLSRANRSHLLHITLSNQHQDSIYNCTASNPVSSISRTFNLSSQACKQESSSESSPWMQYTLVPLGVVIIFILVFTAIIMMKRQGKSNHCQPPVEEKSLTIYAQVQKSGPQEKKLHDALTDQDPCTTIYVAATEPAPESVQEPNPTTVYASVTLPES

Variants of: B1
Settings: with becn1_human BECN1, Q14457
Chain of becn1_human BECN1, Q14457 (Q14457 whole entry): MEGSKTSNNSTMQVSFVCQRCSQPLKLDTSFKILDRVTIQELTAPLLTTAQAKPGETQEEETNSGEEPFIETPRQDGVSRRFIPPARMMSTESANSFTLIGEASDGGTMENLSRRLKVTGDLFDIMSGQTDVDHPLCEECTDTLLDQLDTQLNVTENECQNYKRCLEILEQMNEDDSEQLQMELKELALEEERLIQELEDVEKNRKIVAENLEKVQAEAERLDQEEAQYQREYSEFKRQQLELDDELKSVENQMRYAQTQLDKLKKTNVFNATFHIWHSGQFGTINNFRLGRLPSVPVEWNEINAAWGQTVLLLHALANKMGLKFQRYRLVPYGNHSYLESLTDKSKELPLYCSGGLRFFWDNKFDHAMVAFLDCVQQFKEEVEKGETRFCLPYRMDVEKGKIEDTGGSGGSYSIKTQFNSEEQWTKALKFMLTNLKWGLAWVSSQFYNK

Effect of a mutation on the interaction, decreasing interaction:
MDPKGSLSWRILLFLSLAFELSYGTGGGVMDCPVILQKLGQDTWLPLTNEHQINKSVNKSVRILVTMATSPGSKSNKKIVSFDLSKGSYPDHLEDGYHFQSKNLSLKILGNRRESEGWYLVSVEENVSVQQFCKQLKLYEQVSPPEIKVLNKTQENENGTCSLLLACTVKKGDHVTYSWSDEAGTHLLSRANRSHLLHITLSNQHQDSIYNCTASNPVSSISRTFNLSSQACKQESSSESSPWMQYTLVPLGVVIIFILVFTAIIMMKRQGKSNHCQPPVEEKSLTIFAQVQKSGPQEKKLHDALTDQDPCTTIFVAATEPAPESVQEPNPTTVYASVTLPES [Y288F;Y315F]
MDPKGSLSWRILLFLSLAFELSYGTGGGVMDCPVILQKLGQDTWLPLTNEHQINKSVNKSVRILVTMATSPGSKSNKKIVSFDLSKGSYPDHLEDGYHFQSKNLSLKILGNRRESEGWYLVSVEENVSVQQFCKQLKLYEQVSPPEIKVLNKTQENENGTCSLLLACTVKKGDHVTYSWSDEAGTHLLSRANRSHLLHITLSNQHQDSIYNCTASNPVSSISRTFNLSSQACKQESSSESSPWMQYTLVPLGVVIIFILVFTAIIMMKRQGKSNHCQPPVEEKSLTIFAQVQKSGPQEKKLHDALTDQDPCTTIYVAATEPAPESVQEPNPTTVFASVTLPES [Y288F;Y335F]
MDPKGSLSWRILLFLSLAFELSYGTGGGVMDCPVILQKLGQDTWLPLTNEHQINKSVNKSVRILVTMATSPGSKSNKKIVSFDLSKGSYPDHLEDGYHFQSKNLSLKILGNRRESEGWYLVSVEENVSVQQFCKQLKLYEQVSPPEIKVLNKTQENENGTCSLLLACTVKKGDHVTYSWSDEAGTHLLSRANRSHLLHITLSNQHQDSIYNCTASNPVSSISRTFNLSSQACKQESSSESSPWMQYTLVPLGVVIIFILVFTAIIMMKRQGKSNHCQPPVEEKSLTIYAQVQKSGPQEKKLHDALTDQDPCTTIFVAATEPAPESVQEPNPTTVFASVTLPES [Y315F;Y335F]
